Where no end group is shown, it is not given here.
How the values were obtained:
[1] = tested on: HLA-A*24:02 transgenic mouse; assay: In vivo CTL induction in HLA-A*24:02 transgenic mouse (IFNγ ELISPOT assay of splenocytes); conditions: peptide 280 μg per site, intradermal Montanide ISA 51 VG emulsion, two sites; one week after administration
Procedure: The HLA-A*24:02 transgenic mouse (C57BL/6CrHLA-A2402/K^b) is a mouse that expresses a chimeric HLA of a human MHC, HLA-A*24:02 with a mouse MHC, H-2K^b.
The solution was diluted with water for injection to a concentration of 10 mg/mL, and then converted to an emulsion by addition of an equal volume of Montanide ISA 51 VG. […] The concentrations of DMSO contained in emulsions were also fixed. One week after the administration, the mice were sacrificed with CO2 gas. Splenocytes were harvested from spleens removed from the mice. For detecting IFNγ-producing splenocytes, an IFNγ ELISPOT assay kit was used. In particular, an ELISPOT plate was treated with an anti-mouse-IFNγ antibody on the day before preparation of the splenocyte samples. On the next day, the plate was blocked by treatment with an RPMI 1640 medium with 10% FBS. To the blocked ELISPOT plate, the splenocyte samples from the HLA-A*24:02 transgenic mice were added at 2.5×10^5 cells/well. For in vitro stimulation of the cells, the peptide of SEQ ID NO: 4 was dissolved in DMSO at a concentration of 40 mg/ml, diluted with RPMI 1640 with 10% FBS to 40 μg/ml, and added to the splenocyte-containing wells at a final concentration of 10 μg/ml. The plate was incubated for 18-20 hours at 37° C. under an atmosphere of 5% CO2. Then, after removal of the culture medium from the wells, the ELISPOT plate was subjected to treatment for cell staining in accordance with the manufacturer's protocol. Stained spots were counted on ImmunoSpot S6 Analyzer (C.T.L.). […]

[2] = molecular target: endoplasmic reticulum aminopeptidase 1 (UniProt Q9NZ08 1-941, limits assumed); assay: cell-based or functional assay
Chain of endoplasmic reticulum aminopeptidase 1 (Q9NZ08 whole entry): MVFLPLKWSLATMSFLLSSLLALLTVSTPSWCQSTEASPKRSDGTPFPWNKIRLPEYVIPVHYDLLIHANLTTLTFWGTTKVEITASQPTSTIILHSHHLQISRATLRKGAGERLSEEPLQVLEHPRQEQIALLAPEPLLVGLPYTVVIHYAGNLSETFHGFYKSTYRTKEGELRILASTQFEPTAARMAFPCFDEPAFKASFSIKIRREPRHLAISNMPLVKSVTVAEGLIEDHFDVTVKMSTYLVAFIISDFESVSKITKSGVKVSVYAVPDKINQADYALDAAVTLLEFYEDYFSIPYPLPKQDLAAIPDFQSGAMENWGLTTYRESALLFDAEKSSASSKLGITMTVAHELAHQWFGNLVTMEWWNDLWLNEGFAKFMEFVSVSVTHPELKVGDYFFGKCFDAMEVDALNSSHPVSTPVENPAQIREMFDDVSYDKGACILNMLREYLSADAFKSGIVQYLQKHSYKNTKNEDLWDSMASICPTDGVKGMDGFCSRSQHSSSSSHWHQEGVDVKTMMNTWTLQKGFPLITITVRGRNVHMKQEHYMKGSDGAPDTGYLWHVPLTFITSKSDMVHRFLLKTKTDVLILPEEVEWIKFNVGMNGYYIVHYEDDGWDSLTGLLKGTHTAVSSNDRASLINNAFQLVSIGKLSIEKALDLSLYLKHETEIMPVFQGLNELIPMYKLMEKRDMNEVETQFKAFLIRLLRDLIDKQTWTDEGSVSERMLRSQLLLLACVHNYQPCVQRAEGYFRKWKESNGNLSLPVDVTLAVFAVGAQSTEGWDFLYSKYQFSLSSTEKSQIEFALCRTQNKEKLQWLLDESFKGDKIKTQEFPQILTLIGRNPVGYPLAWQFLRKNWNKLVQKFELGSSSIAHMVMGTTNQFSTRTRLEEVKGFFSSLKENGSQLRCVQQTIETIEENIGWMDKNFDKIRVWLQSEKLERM

Row | Molecule | induction of CTLs responsive to the peptide of SEQ ID NO: 4 (IFNγ-producing splenocytes) [1] | Production Rate of SEQ ID NO: 4 [2]
1 | HCYTWNQMNL [SEQ ID NO: 34] | induced CTLs responsive to the peptide of SEQ ID NO: 4 | –
2 | FCYTWNQMNL [SEQ ID NO: 38] | induced CTLs responsive to the peptide of SEQ ID NO: 4 | –
3 | RCYTWNQMNL [SEQ ID NO: 28] | induced CTLs responsive to the peptide of SEQ ID NO: 4 | –
4 | YCYTWNQMNL [SEQ ID NO: 40] | induced CTLs responsive to the peptide of SEQ ID NO: 4 | –
5 | KCYTWNQMNL [SEQ ID NO: 36] | induced CTLs responsive to the peptide of SEQ ID NO: 4 | –
6 | QCYTWNQMNL [SEQ ID NO: 30] | induced CTLs responsive to the peptide of SEQ ID NO: 4 | –
7 | ECYTWNQMNL [SEQ ID NO: 32] | induced CTLs responsive to the peptide of SEQ ID NO: 4 | –
8 | YCYTWNQMNL (also: TFA salt) [peptide YCYTWNQMNL (SEQ ID NO: 40)] | – | 35.2%
9 | QCYTWNQMNL (also: TFA salt) [peptide QCYTWNQMNL (SEQ ID NO: 30)] | – | 32.5%
10 | CCYTWNQMNL (cysteine pairing not given here; also: TFA salt) [peptide CCYTWNQMNL (SEQ ID NO: 10)] | – | 20.3%
11 | WCYTWNQMNL (also: TFA salt) [peptide WCYTWNQMNL (SEQ ID NO: 66)] | – | 5.2%
12 | LCYTWNQMNL (also: TFA salt) [peptide LCYTWNQMNL (SEQ ID NO: 59)] | – | 5.8%
13 | TCYTWNQMNL (also: TFA salt) [peptide TCYTWNQMNL (SEQ ID NO: 64)] | – | 15.6%
14 | VCYTWNQMNL (also: TFA salt) [peptide VCYTWNQMNL (SEQ ID NO: 65)] | – | 5.1%
15 | PCYTWNQMNL (also: TFA salt) [peptide PCYTWNQMNL (SEQ ID NO: 62)] | – | 11.1%
16 | RCYTWNQMNL (also: TFA salt) [peptide RCYTWNQMNL (SEQ ID NO: 28)] | – | 49.2%
17 | SCYTWNQMNL (also: TFA salt) [peptide SCYTWNQMNL (SEQ ID NO: 63)] | – | 24.6%
18 | NCYTWNQMNL (also: TFA salt) [peptide NCYTWNQMNL (SEQ ID NO: 61)] | – | 29.1%
19 | ICYTWNQMNL (also: TFA salt) [peptide ICYTWNQMNL (SEQ ID NO: 58)] | – | 2.8%
20 | ACYTWNQMNL (also: TFA salt) [peptide ACYTWNQMNL (SEQ ID NO: 55)] | – | 10%
21 | HCYTWNQMNL (also: TFA salt) [peptide HCYTWNQMNL (SEQ ID NO: 34)] | – | 24.4%
22 | MCYTWNQMNL (also: TFA salt) [peptide MCYTWNQMNL (SEQ ID NO: 60)] | – | 32.1%
23 | KCYTWNQMNL (also: TFA salt) [peptide KCYTWNQMNL (SEQ ID NO: 36)] | – | 45%
24 | ECYTWNQMNL (also: TFA salt) [peptide ECYTWNQMNL (SEQ ID NO: 32)] | – | 32.5%
25 | FCYTWNQMNL (also: TFA salt) [peptide FCYTWNQMNL (SEQ ID NO: 38)] | – | 18.4%
